Measurements taken from patent publication US20130302353A1 (published 2013).

T1: VSREGQGRQ (SEQ ID NO:38) motif (human)
T1 construct: the peptides on the cards were longer and mostly CLIPS-constrained; also called core region EGQ
T1 peptide: VSREGQGRQ

T2: IRSMPSHPDRA (SEQ ID NO:33) (human)
T2 construct: the peptides on the cards were longer and mostly CLIPS-constrained
T2 peptide: IRSMPSHPDRA

T3: FLAG-hAPRIL captured by BCMA-Fc (human, UniProt O75888 110-250; Q02223 1-54, limits assumed)
T3 construct: also called APRIL-BCMA complex; receptor-ligand complex; not shown: FLAG tag; Fc of human IgG1
T3 sequence (looked up) 1: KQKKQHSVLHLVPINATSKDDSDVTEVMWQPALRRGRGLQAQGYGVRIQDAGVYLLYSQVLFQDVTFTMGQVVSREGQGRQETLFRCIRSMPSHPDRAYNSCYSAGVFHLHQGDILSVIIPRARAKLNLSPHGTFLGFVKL
T3 sequence (looked up) 2: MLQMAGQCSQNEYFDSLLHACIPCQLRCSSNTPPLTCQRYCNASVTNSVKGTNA


Experiments:
[1] = molecular target: T1, VSREGQGRQ (SEQ ID NO:38) motif; assay: Pepscan ELISA on linear and CLIPS peptides
Method: (§1) The synthetic linear and CLIPS peptides were synthesized and screened using credit-card format mini PEPSCAN cards (455-well plate with 3 ul wells) as described by Slootstra et al. (Slootstra et al., 1996, Mol. Diversity. 1, 87-96) and Timmerman et al. (Timmerman et al., 2007, J. Mol. Recognit. 20, 283-299). The binding of antibodies (hAPRIL.01A and hAPRIL.03A) to each peptide was tested in a PEPSCAN-based enzyme-linked immuno assay (ELISA). The 455-well creditcard-format polypropylene cards, containing the covalently linked peptides, were incubated with sample (for example 1 ug/ml antibody diluted in a PBS solution containing 5% horse serum (vol/vol) and 5% ovalbumin (weight/vol)) and 1% Tween 80 (4° C., overnight). After washing the peptides were incubated with an anti-antibody peroxidase (dilution 1/1000, for example rabbit anti-mouse peroxidase, Southern Biotech) (1 hour, 25° C.), and subsequently, after washing the peroxidase substrate 2,2′-azino-di-3-ethylbenzthiazoline sulfonate (ABTS) and […] 3% H2O2 were added. After 1 hour the color development was measured. The color development of the ELISA was quantified with a CCD-camera and an image processing system. […]
(§2) Each antibody was tested on all 4225 peptides and their binding values were ranked. […] For hAPRIL.01A it was determined that it binds to […] […]

[2] = molecular target: T2, IRSMPSHPDRA (SEQ ID NO:33); assay: Pepscan ELISA on linear and CLIPS peptides
Method: as §1, §2

[3] = molecular target: T3, FLAG-hAPRIL captured by BCMA-Fc; assay: ELISA, FLAG-hAPRIL captured by coated BCMA-Fc
Method: Protein-based ELISA experiments using purified hAPRIL.01A and hAPRIL.03A antibodies were performed to determine apparent binding affinities (reported as EC₅₀ values). Binding was compared to mouse anti-hAPRIL IgG1 Aprily-5 (Alexis). Maxisorp 96-well immunoplates (Nunc) were coated with either rabbit anti-FLAG polyclonal antibody (Sigma) or BCMA-Fc (R&D Systems) at 50 ng/well in PBS overnight at 4° C. and blocked with 10% Goat serum/PBST for 1 hour at RT. Plates were washed with PBST 3 times and incubated with supernatant (1:4 in PBS) containing FLAG-hAPRIL for 1 hour at RT. Plates were again washed with PBST 3 times and incubated with hAPRIL.01A, hAPRIL.03A, and Aprily-5 antibodies (10 μg/ml high test with 10-fold dilutions in triplicates) for 1 h at RT. After three washes with PBST, bound antibodies were detected with goat anti-mouse IgG-HRP (1:2,000) (Southern Biotechnology) for 1 hour at RT. Plate was washed three times with PBST, and APRIL-reactivity was visualized with OptiEIA TMB substrate (Becton Dickinson). The concentration for half-maximal binding is reported as a measure of relative binding affinity. When FLAG-hAPRIL was captured by the anti-FLAG antibody (FIG. 2A), EC₅₀ values for hAPRIL.01A, hAPRIL.03A and Aprily-5 were calculated as 2.2, 1.4, and 1.7 nM, respectively. […] In contrast, binding of hAPRIL.03A to the APRIL-BCMA complex was observed.

Row | binding result [1] | binding result [2] | binding result [3] | Binder
1 | binds |  |  | hAPRIL.03A (antibody, IgG1, V domains shown, Mouse antibody from a hybridoma; also called hAPRIL.03A hybridoma supernatant; purified hAPRIL.03A) VH: QVTLKESGPGILQPSQTLSLTCSFSGFSLSTYGIGVGWIRQPSGKGLEWLAHIWWNDNKYYNTALKSRLTISKDTSNNQVFLKIASVDTADTATYYCARIAGGNYDYAMDHWGQGTSVTVSS VL: QIVLTQSPAIMSTSPGEKVTLTCSASSSVSSTYLYWYQQKPGSSPKLWIYSTSNLASGVPARFSGSGSGTSYSLTISSMEAEDAASYFCHQWSSYPPTFGAGTKLELK
2 |  | binds | no binding (tested: 10 µg/ml high test) | hAPRIL.01A (antibody, IgG1, V domains shown, Mouse antibody from a hybridoma; also called hAPRIL.01A hybridoma supernatant; purified hAPRIL.01A) VH: EVQLQQSGPELVKPGASVKMSCKASGYTFTSYVMHWVKQKPGQGLEWIGYINPYNDAPKYNEKFKGKATVTSDKSSGTAYMELSSLTSEDSAVYYCARGLGYALYYAMDYWGQGTSVTVSS VL: DIVMTQSQKFKSTSVGDRVSVTCKASQNVGNNVAWYQQKAGQSPKALISSASNRDSGVPDRFTGSGSGTDFTLTISNVQSEDLADYFCQQYNIYPFTFGSGTELEIK
